The values that follow come from patent publication US20100322937A1.

For test [1], the target named is EGFR 273-621 C287R, yeast surface displayed (UniProt P00533). Put plainly: from titration on yeast surface displayed fragments.
The target of test [2] is EGFR 273-621 E293K, yeast surface displayed (UniProt P00533). The test is described as above.
Test [3] has as its target wtEGFR: full-length human EGFR with FLAG tag after the leader, on BaF/3 cells (human) (UniProt P00533). Description: FACS, wtEGFR-BaF/3 cells after mock preincubation, antibody at 10 µg/ml. (In general: Flow cytometry measures light scatter and fluorescence of single cells or particles in a stream.)
Test [4] shares this target. Put plainly: FACS median fluorescence, wtEGFR-BaF/3 cells preincubated with EGF (10 ng/ml, 4 C, 15 min).
Test [5] shares this target. Description: FACS median fluorescence, wtEGFR-BaF/3 cells preincubated with mAb[…] (10 µg/ml, 37 C, 1 hr).
Test [6] addresses EGFR 273-621 C287R, yeast surface displayed (UniProt P00533). Description: titration on yeast surface displayed fragment, flow cytometry, global fit of three data sets.
The target in test [7] is wild-type EGFR 273-621 (C283A template), yeast surface displayed, C-terminal c-myc tag (UniProt P00533). Described as above.

For orientation: Kd means the equilibrium constant for the complex coming apart. Lower therefore signals tighter binding.

monoclonal antibody 806 (mAb 806), murine IgG2b anti-EGFR, sequence (VH): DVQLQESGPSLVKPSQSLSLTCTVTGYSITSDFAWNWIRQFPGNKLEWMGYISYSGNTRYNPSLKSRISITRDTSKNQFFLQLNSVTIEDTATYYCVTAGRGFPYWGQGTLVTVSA
monoclonal antibody 806 (mAb 806), murine IgG2b anti-EGFR, sequence (VL): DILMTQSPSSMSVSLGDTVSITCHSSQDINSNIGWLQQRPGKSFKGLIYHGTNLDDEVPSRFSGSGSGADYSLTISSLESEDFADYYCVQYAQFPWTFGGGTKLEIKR

On to “monoclonal antibody 806 (mAb 806), murine IgG2b anti-EGFR”, for which the ΔΔG compared to wild-type came to 2.4 kcal/mol in test [1] and 5.7 kcal/mol in test [2]. Moreover, in test [3], the median fluorescence was determined as 7. The change (%) in antibody reactivity after preincubation was -48% in test [4] and 163% in test [5]. Further, the figures for the equilibrium dissociation constant (Kd) in test [6] and in test [7] were 0.127 µM and 0.00213 µM, respectively.

Take “monoclonal antibody 528 (mAb 528), IgG2a anti-EGFR”: in test [3], the median fluorescence was determined as 112. For the same substance, the change (%) in antibody reactivity after preincubation was -23% in test [4] and -3% in test [5].
